The target of this test is T1, canine NGF tagged at the C-terminus with the Flag tag (canine, UniProt A0A8I3PYI3 122-241).
T1 construct: mature; Expressed with baculovirus technology; also called feline NGF (processed form identical)
In words: SPR off-rate screen, Fab-SASA on BSA chip.

As usually defined, the Kd is the constant that tells how readily two partners part at equilibrium. Lower therefore signals tighter binding. As a reminder, the koff is the rate constant with which the complex falls apart. A lower koff goes with a long-lived complex. As usually defined, the kon is a measure of how fast the partners come together. A lower kon goes with slow association.

T1 sequence (A0A8I3PYI3 entry or part of it): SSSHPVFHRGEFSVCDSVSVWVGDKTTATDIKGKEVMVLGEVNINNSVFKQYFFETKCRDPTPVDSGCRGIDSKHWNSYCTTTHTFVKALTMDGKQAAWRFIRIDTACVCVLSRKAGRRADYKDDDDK

B1: felinized clone 101 Fab-SASA variant S56N (VL) (Fab, V domains shown, not shown: small tags and cut ends)
VH: DVQLVESGGDLVKPGGSLRLTCVASGLSLTSSSMSWVRQAPGKGLQWVSTIYSNGGTYYTDSVKGRFTISKDNAENTLYLQMNNLKTEDTATYYCASIYYYDADYLHWYFDFWGQGALVTVSS
VL: EIQMTQSPTSLSASVGDRVTITCRASEGISNNLSWYQQTPGKAPKLLIYATSNLHNGVPSRFSGSGSGTDFTLTISSLQPEDFATYYCQQGYKWPLTFGGGTKLEITR
Take B1: the Kd turned out to be 2.64 nM, the “Ratio WT-kd/clone-kd” value was 1.04, the koff came to 0.000903 s⁻¹ and the kon was found to be 341000 M⁻¹ s⁻¹.

B2: felinized clone 101 Fab-SASA variant S56T (VL) (Fab, V domains shown, not shown: small tags and cut ends)
VH: DVQLVESGGDLVKPGGSLRLTCVASGLSLTSSSMSWVRQAPGKGLQWVSTIYSNGGTYYTDSVKGRFTISKDNAENTLYLQMNNLKTEDTATYYCASIYYYDADYLHWYFDFWGQGALVTVSS
VL: EIQMTQSPTSLSASVGDRVTITCRASEGISNNLSWYQQTPGKAPKLLIYATSNLHTGVPSRFSGSGSGTDFTLTISSLQPEDFATYYCQQGYKWPLTFGGGTKLEITR
Turning to B2, binding was put at a Kd of 1.99 nM, the “Ratio WT-kd/clone-kd” value is 1.32, the koff amounted to 0.000714 s⁻¹ and the kon came to 358000 M⁻¹ s⁻¹.

B3: felinized clone 101 Fab-SASA variant T60S (VH) (Fab, V domains shown, not shown: small tags and cut ends)
VH: DVQLVESGGDLVKPGGSLRLTCVASGLSLTSSSMSWVRQAPGKGLQWVSTIYSNGGTYYSDSVKGRFTISKDNAENTLYLQMNNLKTEDTATYYCASIYYYDADYLHWYFDFWGQGALVTVSS
VL: EIQMTQSPTSLSASVGDRVTITCRASEGISNNLSWYQQTPGKAPKLLIYATSNLHSGVPSRFSGSGSGTDFTLTISSLQPEDFATYYCQQGYKWPLTFGGGTKLEITR
With B3, the Kd stood at 1.76 nM, the “Ratio WT-kd/clone-kd” value came out at 1.65, the koff was 0.000573 s⁻¹ and the kon worked out at 325000 M⁻¹ s⁻¹.

B4: felinized clone 101 Fab-SASA variant S97Q (VH) (Fab, V domains shown, not shown: small tags and cut ends)
VH: DVQLVESGGDLVKPGGSLRLTCVASGLSLTSSSMSWVRQAPGKGLQWVSTIYSNGGTYYTDSVKGRFTISKDNAENTLYLQMNNLKTEDTATYYCAQIYYYDADYLHWYFDFWGQGALVTVSS
VL: EIQMTQSPTSLSASVGDRVTITCRASEGISNNLSWYQQTPGKAPKLLIYATSNLHSGVPSRFSGSGSGTDFTLTISSLQPEDFATYYCQQGYKWPLTFGGGTKLEITR
notes: Fab-SASA in conditioned medium
Take B4: binding was put at a Kd of 1.36 nM, the “Ratio WT-kd/clone-kd” value was determined as 2.34, the koff turned out to be 0.000403 s⁻¹ and the kon came out at 297000 M⁻¹ s⁻¹.

B5: felinized clone 101 Fab-SASA variant S97T (VH) (Fab, V domains shown, not shown: small tags and cut ends)
VH: DVQLVESGGDLVKPGGSLRLTCVASGLSLTSSSMSWVRQAPGKGLQWVSTIYSNGGTYYTDSVKGRFTISKDNAENTLYLQMNNLKTEDTATYYCATIYYYDADYLHWYFDFWGQGALVTVSS
VL: EIQMTQSPTSLSASVGDRVTITCRASEGISNNLSWYQQTPGKAPKLLIYATSNLHSGVPSRFSGSGSGTDFTLTISSLQPEDFATYYCQQGYKWPLTFGGGTKLEITR
notes: as for B4
With B5, the Kd turned out to be 1.88 nM, the “Ratio WT-kd/clone-kd” value came out at 1.32, the koff stood at 0.000716 s⁻¹ and the on-rate (kon) is 380000 M⁻¹ s⁻¹.

B6: felinized clone 101 Fab-SASA variant S97H (VH) (Fab, V domains shown, not shown: small tags and cut ends)
VH: DVQLVESGGDLVKPGGSLRLTCVASGLSLTSSSMSWVRQAPGKGLQWVSTIYSNGGTYYTDSVKGRFTISKDNAENTLYLQMNNLKTEDTATYYCAHIYYYDADYLHWYFDFWGQGALVTVSS
VL: EIQMTQSPTSLSASVGDRVTITCRASEGISNNLSWYQQTPGKAPKLLIYATSNLHSGVPSRFSGSGSGTDFTLTISSLQPEDFATYYCQQGYKWPLTFGGGTKLEITR
Consider B6, for which the Kd amounted to 1.79 nM, the “Ratio WT-kd/clone-kd” value stood at 1.77, the koff came to 0.000533 s⁻¹ and the kon amounted to 297000 M⁻¹ s⁻¹.

B7: felinized clone 101 Fab-SASA variant Y99F (VH) (Fab, V domains shown, not shown: small tags and cut ends)
VH: DVQLVESGGDLVKPGGSLRLTCVASGLSLTSSSMSWVRQAPGKGLQWVSTIYSNGGTYYTDSVKGRFTISKDNAENTLYLQMNNLKTEDTATYYCASIFYYDADYLHWYFDFWGQGALVTVSS
VL: EIQMTQSPTSLSASVGDRVTITCRASEGISNNLSWYQQTPGKAPKLLIYATSNLHSGVPSRFSGSGSGTDFTLTISSLQPEDFATYYCQQGYKWPLTFGGGTKLEITR
Turning to B7, the Kd was determined as 1.46 nM, the “Ratio WT-kd/clone-kd” value came to 2.01, the koff came out at 0.000469 s⁻¹ and the association rate constant (kon) worked out at 321000 M⁻¹ s⁻¹.

B8: felinized clone 101 Fab-SASA variant S62D (VH) (Fab, V domains shown, not shown: small tags and cut ends)
VH: DVQLVESGGDLVKPGGSLRLTCVASGLSLTSSSMSWVRQAPGKGLQWVSTIYSNGGTYYTDDVKGRFTISKDNAENTLYLQMNNLKTEDTATYYCASIYYYDADYLHWYFDFWGQGALVTVSS
VL: EIQMTQSPTSLSASVGDRVTITCRASEGISNNLSWYQQTPGKAPKLLIYATSNLHSGVPSRFSGSGSGTDFTLTISSLQPEDFATYYCQQGYKWPLTFGGGTKLEITR
With B8, the Kd is 1.86 nM, the “Ratio WT-kd/clone-kd” value worked out at 1.68, the koff came to 0.00056 s⁻¹ and the kon was found to be 301000 M⁻¹ s⁻¹.

B9: felinized clone 101 Fab-SASA variant Y52W (VH) (Fab, V domains shown, not shown: small tags and cut ends)
VH: DVQLVESGGDLVKPGGSLRLTCVASGLSLTSSSMSWVRQAPGKGLQWVSTIWSNGGTYYTDSVKGRFTISKDNAENTLYLQMNNLKTEDTATYYCASIYYYDADYLHWYFDFWGQGALVTVSS
VL: EIQMTQSPTSLSASVGDRVTITCRASEGISNNLSWYQQTPGKAPKLLIYATSNLHSGVPSRFSGSGSGTDFTLTISSLQPEDFATYYCQQGYKWPLTFGGGTKLEITR
As for B9, the Kd stood at 1.5 nM, the “Ratio WT-kd/clone-kd” value stood at 1.45, the koff was 0.000651 s⁻¹ and the kon turned out to be 434000 M⁻¹ s⁻¹.

B10: felinized clone 101 Fab-SASA variant T30N (VH) (Fab, V domains shown, not shown: small tags and cut ends)
VH: DVQLVESGGDLVKPGGSLRLTCVASGLSLNSSSMSWVRQAPGKGLQWVSTIYSNGGTYYTDSVKGRFTISKDNAENTLYLQMNNLKTEDTATYYCASIYYYDADYLHWYFDFWGQGALVTVSS
VL: EIQMTQSPTSLSASVGDRVTITCRASEGISNNLSWYQQTPGKAPKLLIYATSNLHSGVPSRFSGSGSGTDFTLTISSLQPEDFATYYCQQGYKWPLTFGGGTKLEITR
Take B10: the Kd came out at 2.12 nM, the “Ratio WT-kd/clone-kd” value worked out at 1.34, the koff was determined as 0.000704 s⁻¹ and the kon stood at 333000 M⁻¹ s⁻¹.

B11: felinized clone 101 Fab-SASA variant Y58D (VH) (Fab, V domains shown, not shown: small tags and cut ends)
VH: DVQLVESGGDLVKPGGSLRLTCVASGLSLTSSSMSWVRQAPGKGLQWVSTIYSNGGTDYTDSVKGRFTISKDNAENTLYLQMNNLKTEDTATYYCASIYYYDADYLHWYFDFWGQGALVTVSS
VL: EIQMTQSPTSLSASVGDRVTITCRASEGISNNLSWYQQTPGKAPKLLIYATSNLHSGVPSRFSGSGSGTDFTLTISSLQPEDFATYYCQQGYKWPLTFGGGTKLEITR
In the case of B11, the Kd worked out at 1.47 nM, the “Ratio WT-kd/clone-kd” value was 1.68, the koff was 0.000562 s⁻¹ and the kon was found to be 381000 M⁻¹ s⁻¹.

B12: felinized clone 101 Fab-SASA variant S97M (VH) (Fab, V domains shown, not shown: small tags and cut ends)
VH: DVQLVESGGDLVKPGGSLRLTCVASGLSLTSSSMSWVRQAPGKGLQWVSTIYSNGGTYYTDSVKGRFTISKDNAENTLYLQMNNLKTEDTATYYCAMIYYYDADYLHWYFDFWGQGALVTVSS
VL: EIQMTQSPTSLSASVGDRVTITCRASEGISNNLSWYQQTPGKAPKLLIYATSNLHSGVPSRFSGSGSGTDFTLTISSLQPEDFATYYCQQGYKWPLTFGGGTKLEITR
With B12, the dissociation constant Kd is 1.75 nM, the “Ratio WT-kd/clone-kd” value was 2.02, the koff is 0.000466 s⁻¹ and the kon was 266000 M⁻¹ s⁻¹.

B13: felinized clone 101 Fab-SASA variant T60D (VH) (Fab, V domains shown, not shown: small tags and cut ends)
VH: DVQLVESGGDLVKPGGSLRLTCVASGLSLTSSSMSWVRQAPGKGLQWVSTIYSNGGTYYDDSVKGRFTISKDNAENTLYLQMNNLKTEDTATYYCASIYYYDADYLHWYFDFWGQGALVTVSS
VL: EIQMTQSPTSLSASVGDRVTITCRASEGISNNLSWYQQTPGKAPKLLIYATSNLHSGVPSRFSGSGSGTDFTLTISSLQPEDFATYYCQQGYKWPLTFGGGTKLEITR
In the case of B13, the Kd came to 1.93 nM, the “Ratio WT-kd/clone-kd” value came to 1.66, the koff is 0.000567 s⁻¹ and the kon was 294000 M⁻¹ s⁻¹.

B14: felinized clone 101 Fab-SASA variant T30R (VH) (Fab, V domains shown, not shown: small tags and cut ends)
VH: DVQLVESGGDLVKPGGSLRLTCVASGLSLRSSSMSWVRQAPGKGLQWVSTIYSNGGTYYTDSVKGRFTISKDNAENTLYLQMNNLKTEDTATYYCASIYYYDADYLHWYFDFWGQGALVTVSS
VL: EIQMTQSPTSLSASVGDRVTITCRASEGISNNLSWYQQTPGKAPKLLIYATSNLHSGVPSRFSGSGSGTDFTLTISSLQPEDFATYYCQQGYKWPLTFGGGTKLEITR
Turning to B14, the Kd came to 2.05 nM, the “Ratio WT-kd/clone-kd” value is 1.29, the koff is 0.00073 s⁻¹ and the kon is 357000 M⁻¹ s⁻¹.

B15: felinized clone 101 Fab-SASA variant T60H (VH) (Fab, V domains shown, not shown: small tags and cut ends)
VH: DVQLVESGGDLVKPGGSLRLTCVASGLSLTSSSMSWVRQAPGKGLQWVSTIYSNGGTYYHDSVKGRFTISKDNAENTLYLQMNNLKTEDTATYYCASIYYYDADYLHWYFDFWGQGALVTVSS
VL: EIQMTQSPTSLSASVGDRVTITCRASEGISNNLSWYQQTPGKAPKLLIYATSNLHSGVPSRFSGSGSGTDFTLTISSLQPEDFATYYCQQGYKWPLTFGGGTKLEITR
Take B15: the Kd was 1.8 nM, the “Ratio WT-kd/clone-kd” value came out at 1.68, the koff amounted to 0.000561 s⁻¹ and the kon stood at 312000 M⁻¹ s⁻¹.

B16: felinized clone 101 Fab-SASA variant T60E (VH) (Fab, V domains shown, not shown: small tags and cut ends)
VH: DVQLVESGGDLVKPGGSLRLTCVASGLSLTSSSMSWVRQAPGKGLQWVSTIYSNGGTYYEDSVKGRFTISKDNAENTLYLQMNNLKTEDTATYYCASIYYYDADYLHWYFDFWGQGALVTVSS
VL: EIQMTQSPTSLSASVGDRVTITCRASEGISNNLSWYQQTPGKAPKLLIYATSNLHSGVPSRFSGSGSGTDFTLTISSLQPEDFATYYCQQGYKWPLTFGGGTKLEITR
With B16, the Kd was found to be 2.38 nM, the “Ratio WT-kd/clone-kd” value was 1.38, the koff amounted to 0.000683 s⁻¹ and the kon was found to be 287000 M⁻¹ s⁻¹.

B17: felinized clone 101 Fab-SASA variant Y101H (VH) (Fab, V domains shown, not shown: small tags and cut ends)
VH: DVQLVESGGDLVKPGGSLRLTCVASGLSLTSSSMSWVRQAPGKGLQWVSTIYSNGGTYYTDSVKGRFTISKDNAENTLYLQMNNLKTEDTATYYCASIYYHDADYLHWYFDFWGQGALVTVSS
VL: EIQMTQSPTSLSASVGDRVTITCRASEGISNNLSWYQQTPGKAPKLLIYATSNLHSGVPSRFSGSGSGTDFTLTISSLQPEDFATYYCQQGYKWPLTFGGGTKLEITR
On to B17, for which the Kd came to 1.62 nM, the “Ratio WT-kd/clone-kd” value stood at 1.9, the koff came to 0.000496 s⁻¹ and the kon worked out at 307000 M⁻¹ s⁻¹.

These data come from patent US20250011410A1 (INVETX, published 2025).
